Data published in paper PMC3576809.

Target: recombinant full-length kif2a, MBP fusion protein (Xenopus) (UniProt Q91637)
Assay: pull-down; 1 µM MBP-kif2a added to stage 3 embryo cytoplasmic extract for 15 min, retrieved on amylose resin (15 min), washed with PBS with 0.01% Tween; importin α immunoblot quantified, normalized to kif2a intensity

Sequence of UniProt Q91637 (Q91637 whole entry, the tested form may be a part): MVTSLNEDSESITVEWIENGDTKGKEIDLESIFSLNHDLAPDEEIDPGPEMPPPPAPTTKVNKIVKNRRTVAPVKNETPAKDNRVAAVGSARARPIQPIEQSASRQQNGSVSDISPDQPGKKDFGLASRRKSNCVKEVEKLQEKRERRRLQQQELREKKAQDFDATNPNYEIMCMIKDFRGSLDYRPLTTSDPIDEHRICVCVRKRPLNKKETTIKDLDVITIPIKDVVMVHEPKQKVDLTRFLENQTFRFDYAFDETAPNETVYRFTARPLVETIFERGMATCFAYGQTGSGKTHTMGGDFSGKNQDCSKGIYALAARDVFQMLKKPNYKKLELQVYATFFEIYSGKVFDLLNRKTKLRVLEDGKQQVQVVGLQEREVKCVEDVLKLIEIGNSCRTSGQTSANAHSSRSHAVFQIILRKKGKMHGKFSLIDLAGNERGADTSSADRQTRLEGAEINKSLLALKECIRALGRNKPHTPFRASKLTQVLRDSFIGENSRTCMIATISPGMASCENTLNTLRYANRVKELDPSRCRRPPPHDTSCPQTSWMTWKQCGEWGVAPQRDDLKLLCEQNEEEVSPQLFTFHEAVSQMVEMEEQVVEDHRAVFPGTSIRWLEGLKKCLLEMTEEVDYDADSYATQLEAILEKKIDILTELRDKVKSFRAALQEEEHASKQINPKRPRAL

fold of importin α retrieved from stage 3 extracts against stage 8 extracts: 10 fold
Substance: importin α (endogenous, Xenopus laevis egg and embryo extracts) (natural protein)
